# From the supplement of paper PMC9170038
# System: K4 kissing-loop RNA reporter
# Assay: apparent KD of K4 kissing-loop reporter; higher = weaker reporter binding
# Details: Eterna round: R107
# Experimental: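 RNA-MaP round R107: designed RNA switches with theophylline, tryptophan, arginine or FMN aptamers are transcribed on-chip within common flanks. They are titrated with a labelled K4 kissing-loop RNA reporter in RNA-MaP buffer (100 mM Tris pH 7.5, 80 mM KCl, 4 mM MgCl2), without ligand or with the indicated ligand. Median apparent KD per design.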
# [1] = input ligand: theophylline 20 uM
# [2] = input ligand: tryptophan 2.4 mM
# 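Note: bound reporter read as fluorescence of individual clusters on recovered sequencing chips by microscopy, with normalized cluster intensities fitted with a binding model.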
Sequence,apparent KD of K4 kissing-loop reporter (input ligand: FMN 200 uM) [µM],apparent KD of K4 kissing-loop reporter (input ligand: arginine 13.2 mM) [µM],apparent KD of K4 kissing-loop reporter (input ligand: none) [µM],apparent KD of K4 kissing-loop reporter [1] [µM],apparent KD of K4 kissing-loop reporter [2] [µM]
UUUCGUAGAAGUGAUACCAGACUUGAAAGUGAUGUUUUCCAAUAAUUUAAAUUUUUAGCUGUCCCUUGGCAGCACAGUUUAUUUA [JR_Nu_ExcTheophyB_Sub026],0.218,0.298,0.263,0.334,0.165
AGACUACCACACUGUCAAUAGACAGUGAAUUAGGAUAUGCUGAUAAGCAGAAGGAGUGAUGUUCCGAGGUAGUCAAUAAAAUAAU [FmnAX 13 U30+G66],0.22,0.204,0.216,0.283,0.211
UGUACCGAGUCAGGAUAUCAAAAUAAUUGGAGUGAUGUUCCAAAUACGACUGACAAAGUCGGUCGAUGAGAAGGGACUUGGUACU [FmnBS 11 #SwitchBubble #StaticStem],0.118,0.122,0.122,0.163,0.114
AGUGAUGUAGUGUGUUGUUUGUGAAGUGAUCGAGGACCGGUACGGCCGCCACUCGAGUGAUGAGUGAGUGAUGUUUGUUUAGUGG [#18 K4 Tryptophan A Same State],0.379,0.283,0.376,0.412,0.303
GCAGGACGAGGAGGAGGAUGAAUUACUGAAGGAGCGCAUAUGGUUGCAGGUAGGUCGCGGUAAACAAGUAUAGUGAUGUUAUAUC [SSArgA.P],0.913,0.586,0.552,0.621,0.584
UUCUACGAGUGAUGUUCGUAGUGUAAUCGCUAGGAUAUCGUUUUUUCGAGAAGGAGCGUCGAAGUGAUACGAAAGUAUCGCUUCG [FMN A 13],0.151,0.258,0.3,0.284,0.284
UUUCGGUUCUGAGGAUAUUCGGACAAAUAUAGUGAUGUUGUAUAAGGAGGAGGGUGUUGGCAGUGCGGAGAAGGCAGAAGAGGAU [ExFMNB.U],0.848,0.737,0.992,0.556,0.446
AAUAUAUAGUGAAGGAGCGCGAUAAGCAGUGAUGUUGCUUUGUUAUGAUUGUCUAUUUUUACGCAGGUAGGUCGCACUAUAUAUA [JR_ExcArginiB_Sub020],0.165,0.104,0.126,0.109,0.122
CCGCUGUACUGCAUUAAGUGAUGUUUAGUGCAGGAUAUCUGGAAACAGAGAAGGGCAUGUACUCGACUUAGCCACUACAGCGGUU,0.221,0.123,0.142,0.119,0.129
GAGAGCUCUGGAGGAUAUGAGUCUAGUGAUGUUAGGCGGUCCAUGCGCGUGGCGCGUUAUGCCCUUUUAGAAGGCCAGAGCUCUC [#2 Exclusion - FMN B Attempt #19 (HarryS)],0.0983,0.0693,0.0998,0.113,0.085
CCAUCGCUAUUCGAUACCAGCUACUUAGUGAUGUUAAGUUUAUAUCCACUGUAGGUGGAAAGCCCUUGGCAGCGAAUAGUGAUGG [Theophylline B K4 25],0.436,0.412,0.491,0.223,0.425
ACGUAGUUCUAGGAUACCAGCCAAGGCCCAGGACAAAAGUCCUGGGUCGCCAGUGAUGUUGGCCCUUGGCAGCCUAGAACUACGA [Omei KL Theo B Exc B v11],0.421,0.358,0.457,0.387,0.444
AGUUCUUGCCGAAGGAGCGAGGCAGAGUGAUGUUCUGCAGAUGUCGAAAGACAUCAACUGCCUCAGGUAGGUCGCGGCAUGAACA [#05 K4 Arginine B Exclusion],0.114,0.074,0.0996,0.0873,0.108
UGGAGUUGACGAAAAGUCAACUCCCGAGAAGGAGCGGACGAAAGUCCAGGUAGGUCGCUCGCUACCAGUGAUGUUGGUACUGAAA,0.125,0.18,0.126,0.16,0.105
CUCACAGUGAUGUUGUGGGCCGAGAGUGAUACCAGCCGUAUUUGUGGCCCUUGGCAGCGCAAAAGCCGAGUGAUGUUCGAAUCGG [Same State Theophylline A GF 24],0.211,0.196,0.207,0.19,0.192
AGGGAUGUUAAAGGAUAUAGAAAGUGAUGUUAGAAAGUGAGUGAUGUUGAUGUUAGUGAUGUUAUGUUAGAAGGUUAACAAAACG [a],0.256,0.149,0.211,0.192,0.161
GUAGACAGGCUGCGAACCUAGUCUACAGACUAGGAUAUCAGGAAACUGAGAAGGAGUCUAGUUGCAGUGAUGUUGCAAGAAUAAU [KL-SSFMN-A25],0.0813,0.125,0.0946,0.135,0.0847
GGAUCCACCAGUGAUGUUGGAGAAAACUCUAAGGAUAUGACGAAAGUCAGAAGGUGGUAGACUGGACAAAGUCCGGUGGGAUCCA [FmnA10 U30+G78],0.264,0.229,0.35,0.406,0.317
